Measurements published in article PMC2566858 (Nucleic Acids Research, 2008).
Substitutions are numbered along the chain they refer to. Read-outs that look alike come from different tables or passages of the source.

Experiments:
Experiment in all cases: fluorescence anisotropy
[1] = molecular target: T1, rGyr_hel (reverse gyrase helicase-like domain) (Thermotoga maritima, UniProt O51934 59-541)
T1 sequence: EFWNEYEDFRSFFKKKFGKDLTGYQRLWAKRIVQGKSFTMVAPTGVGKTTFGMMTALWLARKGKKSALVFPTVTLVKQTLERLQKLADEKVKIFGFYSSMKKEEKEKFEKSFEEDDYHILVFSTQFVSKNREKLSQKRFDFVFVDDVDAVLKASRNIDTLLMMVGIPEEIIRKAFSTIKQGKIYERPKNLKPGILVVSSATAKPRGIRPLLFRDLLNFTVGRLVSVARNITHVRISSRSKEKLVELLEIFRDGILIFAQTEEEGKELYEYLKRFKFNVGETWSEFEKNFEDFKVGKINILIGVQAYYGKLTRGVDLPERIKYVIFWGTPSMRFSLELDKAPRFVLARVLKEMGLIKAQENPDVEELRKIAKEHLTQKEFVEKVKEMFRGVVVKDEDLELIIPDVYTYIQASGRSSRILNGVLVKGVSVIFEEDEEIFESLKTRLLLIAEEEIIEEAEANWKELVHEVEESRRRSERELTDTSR

[2] = molecular target: T1, rGyr_hel (reverse gyrase helicase-like …); remark: listed apart in the source
[3] = molecular target: T1, rGyr_hel (reverse gyrase helicase-like …); remark: listed apart in the source
[4] = molecular target: T2, rGyr_fl Y851F (full-length reverse gyrase) (Thermotoga maritima, UniProt O51934 1-1104, Y851F)
T2 sequence: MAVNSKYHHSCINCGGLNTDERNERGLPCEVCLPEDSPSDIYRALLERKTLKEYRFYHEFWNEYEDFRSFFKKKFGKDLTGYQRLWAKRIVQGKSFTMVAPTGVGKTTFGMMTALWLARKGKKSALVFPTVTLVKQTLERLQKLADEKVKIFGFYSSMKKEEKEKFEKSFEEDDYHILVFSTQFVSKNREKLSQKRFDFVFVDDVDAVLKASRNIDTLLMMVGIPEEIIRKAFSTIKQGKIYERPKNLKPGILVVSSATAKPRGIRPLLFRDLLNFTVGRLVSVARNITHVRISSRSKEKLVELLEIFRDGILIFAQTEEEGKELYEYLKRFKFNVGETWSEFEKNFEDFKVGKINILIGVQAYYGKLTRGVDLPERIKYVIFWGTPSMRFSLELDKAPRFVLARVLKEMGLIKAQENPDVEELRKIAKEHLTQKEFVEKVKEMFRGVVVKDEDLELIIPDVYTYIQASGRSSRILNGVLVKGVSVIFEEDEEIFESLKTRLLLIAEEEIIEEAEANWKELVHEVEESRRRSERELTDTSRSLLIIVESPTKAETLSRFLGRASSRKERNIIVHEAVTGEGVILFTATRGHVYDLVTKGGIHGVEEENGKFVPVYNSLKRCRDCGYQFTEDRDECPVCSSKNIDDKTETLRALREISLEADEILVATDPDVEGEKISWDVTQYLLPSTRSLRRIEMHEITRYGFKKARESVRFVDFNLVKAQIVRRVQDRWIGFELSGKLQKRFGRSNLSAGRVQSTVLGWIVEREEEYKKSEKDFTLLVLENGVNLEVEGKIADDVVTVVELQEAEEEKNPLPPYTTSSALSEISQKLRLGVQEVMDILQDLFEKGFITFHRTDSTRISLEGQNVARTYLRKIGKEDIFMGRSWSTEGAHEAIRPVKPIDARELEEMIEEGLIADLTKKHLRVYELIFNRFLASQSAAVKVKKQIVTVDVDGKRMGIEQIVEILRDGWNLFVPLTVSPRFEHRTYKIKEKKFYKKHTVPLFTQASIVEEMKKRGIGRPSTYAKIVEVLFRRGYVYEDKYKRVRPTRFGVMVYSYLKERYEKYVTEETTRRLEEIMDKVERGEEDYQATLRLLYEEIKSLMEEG

[5] = molecular target: T1, rGyr_hel (reverse gyrase helicase-like …); remark: listed apart in the source
rGyr_hel K106Q = molecular target: T3, rGyr_hel K106Q (Thermotoga maritima, UniProt O51934 59-541, K106Q)
T3 sequence: T1 sequence with K48Q

B1: 60-base ssDNA (ssDNA)
DNA: AAGCCAAGCTTCTAGAGTCAGCCCGTGATATTCATTACTTCTTATCCTAGGATCCCCGTT
Q: Which Kd [1] does the source give for B1 here?
A: 2900 ± 100 nM

Q: What about the Kd [2] of the same binder?
A: 460 ± 30 nM

Q: And the Kd [3]?
A: 920 ± 210 nM

Q: What about the Kd [4] of the same binder?
A: 38 ± 2 nM

Q: What about the Kd [5] of the same binder?
A: 280 ± 10 nM

Q: And the Kd (rGyr_hel K106Q)?
A: 200 ± 20 nM
